Experiments:
IL-13RA2 huFc (human) [1] = test: SPR (Biacore T200), scFv_Fc forms on IL-13RA2 huFc, summary table
[2] = biological target: T1, IL-13RA2 endogenously expressed on U251 cells (human) (UniProt Q14627); test: flow cytometry on U251 cells, scFv_Fc form, 5-fold dilutions from 2,000 nM, FITC anti-human IgG
T1 sequence (looked up): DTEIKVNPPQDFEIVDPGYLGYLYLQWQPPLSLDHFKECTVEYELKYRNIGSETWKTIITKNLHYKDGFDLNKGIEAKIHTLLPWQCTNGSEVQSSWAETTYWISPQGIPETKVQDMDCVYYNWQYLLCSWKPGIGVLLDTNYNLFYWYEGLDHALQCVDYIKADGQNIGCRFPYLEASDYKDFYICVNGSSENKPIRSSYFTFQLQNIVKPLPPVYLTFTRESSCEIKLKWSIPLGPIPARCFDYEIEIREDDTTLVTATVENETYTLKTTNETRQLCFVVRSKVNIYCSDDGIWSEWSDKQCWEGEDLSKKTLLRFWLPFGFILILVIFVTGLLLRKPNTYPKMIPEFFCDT

IL-13RA2 huFc (human) [3] = test: SPR (Biacore T200), ligand IL13Ra2 on the chip, scFv_Fc as analyte at 6.25 to 100 nM, 1:1 binding fit, flow 30 ul/min

- Kd (IL-13RA2 huFc (human) [1]): 0.348 nM
- koff (IL-13RA2 huFc (human) [1]): 0.000196 s⁻¹
- kon (IL-13RA2 huFc (human) [1]): 563000 M⁻¹ s⁻¹
- EC50 [2]: 0.33 nM
- Kd (IL-13RA2 huFc (human) [3]): 0.348 nM
- koff (IL-13RA2 huFc (human) [3]): 0.000196 s⁻¹
- kon (IL-13RA2 huFc (human) [3]): 563000 M⁻¹ s⁻¹
B1: 2D3 (scFv_Fc form) (Fc fusion, not shown: a dimerising Fc or GST)
scFv: EVQLLESGGGLVQPGGSLRLSCAASGFTFRRPAMTWVRQAPGKGLEWVSAITGSGGSTYYADSVKGRFTISRDNSKNTLYLQMNSLRAEDTAVYYCVKVRYGWGAGAFDYWGQGTLVTVSSGGGGSGGGGSGGGGSDIQMTQSPSTLSASVGDRVTITCRASQSISSWLAWYQQKPGKAPKLLIYDASSLESGVPSRFSGSGSGTEFTLTISSLQPDDFATYYCQQYDTYPPITFGQGTKVEIK

Source: US20190359723A1
